Reference: patent publication US20170129961A1 (Amgen, published 2017)

T1: human CD70 (human, UniProt P32970 1-193)
T1 construct: also called hu CD70; CD27L
T1 sequence: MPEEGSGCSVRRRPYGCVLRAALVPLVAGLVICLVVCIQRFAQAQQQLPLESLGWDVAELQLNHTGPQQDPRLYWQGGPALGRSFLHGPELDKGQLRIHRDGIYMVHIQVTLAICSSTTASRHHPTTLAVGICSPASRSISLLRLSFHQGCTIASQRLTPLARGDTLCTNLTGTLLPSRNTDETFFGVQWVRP

T2: full-length mouse CD70 with C-terminal V5 tag (mouse, UniProt O55237 1-195)
T2 construct: On transfected CHO cells; also called murine CD70
T2 sequence: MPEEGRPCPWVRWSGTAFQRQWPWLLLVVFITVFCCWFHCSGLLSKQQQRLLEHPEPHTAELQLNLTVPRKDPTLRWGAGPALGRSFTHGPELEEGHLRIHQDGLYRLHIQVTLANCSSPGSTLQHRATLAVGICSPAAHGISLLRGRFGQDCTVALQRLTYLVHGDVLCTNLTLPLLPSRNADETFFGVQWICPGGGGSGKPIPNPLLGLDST

B1: CD70-10 (scFv)
scFv: QVQLQESGPGLVKPSQTLSLTCTVSGDSIISGGYYWSWIRQHPGKCLEWIGYIFYSGSTDYNPSLKSRVTISVDTSKNQFSLKLSSVTAADTAVYYCARSGYSYALFDHWGQGTLVTVSSGGGGSGGGGSGGGGSDIQMTQSPSSLSASVGDRVTISCRASQFIGRYFNWYQQQPGKAPKVLIYAESSLQSGVPSRFSGSGSGTEFTLTISSLQPEDFARYYCQQSYSTPWTFGCGTKVEIK
notes: As m32
B2: CD70-6 (scFv)
scFv: QVQLQESGPGLVKPSQTLSLTCTVSGDSIISGGYYWSWIRQHPGKCLEWIGYIFYSGSTDYNPSLKSRVTISVDTSKNQFSLKLSSVTAADTAVYYCARSGYSYALFDHWGQGTLVTVSSGGGGSGGGGSGGGGSDIQMTQSPSSLSASVGDRVTISCRASQFIGRYFNWYQQQPGKAPKVLIYAESSLQSGVPSRFSGSGSGTEFTLTISSLQPEDFARYYCQQSYSTPFTFGCGTKVEIK
notes: As m32
B3: CD70-5 (scFv)
scFv: QVQLQESGPGLVKPSQTLSLTCTVSGDSIISGGYYWSWIRQHPGKGLEWIGYIFYSGSTDYNPSLKSRVTISVDTSKNQFSLKLSSVTAADTAVYYCARSGYSYALFDHWGQGTLVTVSSGGGGSGGGGSGGGGSDIQMTQSPSSLSASVGDRVTISCRASQFIGRYFNWYQQQPGKAPKVLIYAESSLQSGVPSRFSGSGSGTEFTLTISSLQPEDFARYYCQQSYSTPWTFGQGTKVEIK
notes: As m32
B4: CD70-11 (scFv)
scFv: QVQLVESGGGVVQPGRSLRLSCAASGFTFSTYGMHWVRQAPGKCLEWVAVIWYDGSNKYYGDSVKGRFTISRDNSKNTLYLQMNSLRAEDTAVYYCARDNSHYYYGMDVWGQGTTVTVSSGGGGSGGGGSGGGGSQSVLTQPPSVSGAPGQRVTISCTGSSSNIGAGYDVNWYQQFPGTAPKLLIYVNNNRPSGVPDRFSGSTSGTSASLAITGLQAEDEADYYCQSYETSLSASVFGCGTRLTVL
notes: As m32
B5: CD70-3 (scFv)
scFv: QEQLVESGGGVVQPGRSLRLSCAASGFTFSSYGMHWVRQAPGKGLEWVAVTWYDGSNKYYGDSVKGRFTISRDNSKNTLYLQMNSLRAEDTAVYYCARDLLRGVKGYAMDVWGQGTTVTVSSGGGGSGGGGSGGGGSEIVLTQSPGTLSLSPGERATLSCRASQSLRRIYLAWYQQKPGQAPRLLIYDVFDRATGIPDRFSGGGSGTDFTLTISRLEPEDFAVYYCQQYSDSPFTFGPGTKVDIK
notes: As m32
B6: CD70-14 (scFv)
scFv: EVQLLESGGGLVQPGGSLKLSCAASGFTFSIYAMSWVRQAPGKGLEWVSAISGSGGSTFYADSVKGRFTISRDNSKNTLYLQMNSLRAEDTAVYYCAKHDYSNYPYFDYWGQGTLVTVSSGGGGSGGGGSGGGGSEIVLTQSPGTLSLSPGERATLSCRASQSVRSSYLAWYQQKPGQAPRLLIYGASSRATGIPDRFSGSGSGTDFTLTISRLEPEDFAVYYCQQYGDLPFTFGPGTKLEIK
notes: As m32
B7: CD70-21 (scFv)
scFv: EVQLLESGGGMVQPGGSLRLSCAASGFTFSTYAMSWVRQAPGKGLEWVSAISGSGGRTFYADSVEGRFTISRDNSKNTLYLQMNSLRAEDTAVYYCAKHDYSNYPYFDYWGQGTLVTVSSGGGGSGGGGSGGGGSEIVLTQSPGTLSLSPGERATLSCRASQSVRSTYLAWYQQKPGQAPRLLIYGASSRATGIPDRFSGSGSGTDFTLTISRLEPEDFAVYSCQQYGDLPFTFGPGTKLEIK
notes: As m32
B8: CD70-16 (scFv)
scFv: EVQLLESGGGMVQPGGSLRLSCAASGFTFSSYAMSWVRQAPGKGLEWVSAISGSGGRTFYADSVEGRFTISRDNSKNTLYLQMNSLRAEDTAVYYCAKHDYSNYPYFDYWGQGTLVTVSSGGGGSGGGGSGGGGSEIVLTQSPGTLSLSPGERATLSCRASQSIRSSYLAWYQQKPGQAPRLLIYGASSRATGIPDRFSGSGSGTDFTLTISRLEPEDFAVYYCQQYGDLPFTFGPGTKLEIK
notes: As m32
B9: CD70-19 (scFv)
scFv: EVQLLESGGGLVQPGGSLRLSCAASGFTFSTYAMSWVRQAPGKGLEWVSAISGSGGSTFYADSVKGRFTISRDNSKNTLSLQMNSLRAEDTAVYYCAKHDYSNYPYFDYWGQGTLVTVSSGGGGSGGGGSGGGGSEIVLTQSPGTLSLSPGERATLSCRASQSVRSSYLAWYQQKPGQAPRLLIYGASSRATGIPDRFSGSGSGTDFTLTISRLEPEDFAVYYCQQYGDLPFTFGPGTKLEIK
notes: As m32
B10: CD70-18 (scFv)
scFv: EVQLLESGGGLVQPGGSLRLSCAASGFTFSSYAMSWVRQAPGKGLEWVSLISGSGGRTHYADSVKGRFTISRDNSKNTLYLQMNSLRAEDTAVYYCAKHDYSNYPYFDYWGQGTLVTVSSGGGGSGGGGSGGGGSEIVLTQSPGTLSLSPGERATLSCRASQSVRSTYLAWYQQKPGQAPRLLIYDASSRATGIPDRFSGSGSGTDFTLTISRLEPEDFAVYFCQQYGSSPPTFGGGTKLEIK
notes: As m32
B11: CD70-1 (scFv)
scFv: QVQLVESGGGVVQPGRSLRLSCAASGFTFSTYGMHWVRQAPGKGLEWVAVIWYDGSNKYYGDSVKGRFTISRDNSKNTLYLQMNSLRAEDTAVYYCARDNSHYYYGMDVWGQGTTVTVSSGGGGSGGGGSGGGGSQSVLTQPPSVSGAPGQRVTISCTGSSSNIGAGYDVNWYQQFPGTAPKLLIYVNNNRPSGVPDRFSGSTSGTSASLAITGLQAEDEADYYCQSYDTSLSASVFGGGTRLTVLS
B12: CD70-12 (scFv)
scFv: QAQLVESGGGVVQPGRSLRLSCAASGFTFSYYGMHWVRQAPGKCLEWVAVIWYDGSNKYYADSVKGRFTISRDNSKNTLYLQMNSLRAEDTAVYYCARDREMGSRGDFDYWGQGTLVTVSSGGGGSGGGGSGGGGSDIQMTQSPSSLSASVGDRVTITCRASQGINNYLAWFQQKPGKAPKSLIYAVSILQSGVPSKFSGSGSGTDFTLTIGNLQPEDFATYYCQQYNFYPFSFGCGTKVDIK
notes: As m32
B13: CD70-4 (scFv)
scFv: QVQLVQSGAEVKKPGASVKVSCKASGYTFTSYGISWVRQAPGQGLEWMGWISAYNGYTHYAQKLQGRVTMTTDTSTSTAYMELRSLRSDDTAVYYCARDYGGNDYYGMDVWGQGTTVTVSSGGGGSGGGGSGGGGSQSVLTQPPSASGTPGQRVTISCSGSSSNIGINYVYWYQQLPGTAPKLLIYRSDQRPSGVPDRFSGSKSGTSASLALSGLRSEDEADYYCAAWDDSLSGVVFGGGTKLTVL
notes: As m32
B14: CD70-9 (scFv)
scFv: QVQLVQSGAEVKKPGASVKVSCKASGYTFTSYGISWVRQAPGQCLEWMGWISAYNGYTHYAQKLQGRVTMTTDTSTSTAYMELRSLRSDDTAVYYCARDYGGNDYYGMDVWGQGTTVTVSSGGGGSGGGGSGGGGSQSVLTQPPSASGTPGQRVTISCSGSSSNIGINYVYWYQQLPGTAPKLLIYRSDQRPSGVPDRFSGSKSGTSASLALSGLRSEDEADYYCAAWDDSLSGVVFGCGTKLTVL
notes: As m32
B15: CD70-13 (scFv)
scFv: EVQLLESGGGLVQPGGSLRLSCAASGFTFSSYAMSWVRQAPGKGLEWVSVISGSGGRPNYADSVKGRFTISRDNSKNTLYLQMNSLRDEDTAVYYCAKVDYSNYLFFDYWGQGTLVTVSSGGGGSGGGGSGGGGSEIVLTQSPGTLSLSPGEGATLSCRAGQSVRSSYLGWYQQKPGQAPRLLIYGASSRATGIPDRFSGSGSGTDFTLTISRLEPEDFAVYYCQQYGYSPPTFGGGTKLEIK
B16: CD70-7 (scFv)
scFv: QVHLVQSGAEVKKPGASVRVSCKASGYTFTSYYLHWVRQAPGQCLEWMGIVDPSGGSTSYDQKFQGRFTMTRDTSTSTVYMELSSLRSEDTAVYYCARDYGDYVFDYWGQGTLVTVSSGGGGSGGGGSGGGGSQSVLTQPPSASGTPGQRVTISCSGSSSNIGTNTVNWYQQLPGTAPQLLIYINNQRPSGVPDRFSGSKSGTSASLAISGLQSEDEADYYCATWDDSLNGPVVGCGTKLTVL
notes: As m32
B17: CD70-2 (scFv)
scFv: QVQLVESGGGVVQPGRSLRLSCAASGFTFSSYGMHWVRQAPGKGLEWVAVIWYDGSDKYFADSVKGRFTISRDNSKNTLYLQMNSLRAEDTAVYYCARDGIAGARYVYFDYWGQGTLVTVSSGGGGSGGGGSGGGGSDIQMTQSPSSLSASVGDRVTITCRASQGISNYLAWFQQKPGKAPKSLIYAASSLQGGVPSKFSGSGSGTDFTLTISSLQPEDFATYYCQQYYNYPFTFGPGTTVDIK
B18: CD70-8 (scFv)
scFv: QVQLVESGGGVVQPGRSLRLSCAASGFTFSSYGMHWVRQAPGKCLEWVAVIWYDGSDKYFADSVKGRFTISRDNSKNTLYLQMNSLRAEDTAVYYCARDGIAGARYVYFDYWGQGTLVTVSSGGGGSGGGGSGGGGSDIQMTQSPSSLSASVGDRVTITCRASQGISNYLAWFQQKPGKAPKSLIYAASSLQGGVPSKFSGSGSGTDFTLTISSLQPEDFATYYCQQYYNYPFTFGCGTTVDIK

Experiments:
human CD70 = biological target: T1, human CD70; assay: FACS on CHO cells, periplasmic scFv
Protocol: (§1) All antibodies were diluted in PBS/1.5% FCS. As negative control, cells were incubated with PBS/2% FCS instead of the periplasmic extract. The samples were measured by flow cytometry.

[1] = biological target: T2, full-length mouse CD70 with C-terminal …; assay: FACS on CHO cells, periplasmic scFv
Protocol: as §1

| Binder | binding result (human CD70) | binding result [1] |
| --- | --- | --- |
| B1 | binds | no binding |
| B2 | binds | no binding |
| B3 | binds | no binding |
| B4 | binds | no binding |
| B5 | binds | no binding |
| B6 | binds | no binding |
| B7 | binds | no binding |
| B8 | binds | no binding |
| B9 | binds | no binding |
| B10 | binds | no binding |
| B11 | binds | no binding |
| B12 | binds | no binding |
| B13 | binds | no binding |
| B14 | binds | no binding |
| B15 | binds | no binding |
| B16 | binds | no binding |
| B17 | binds | no binding |
| B18 | binds | no binding |
